Experiment [1] deals with IL-2Rα-His (Acrobiosystems) (UniProt P01589). The experiment in a line: ELISA on plate-coated IL-2Rα-His, OD450 against antibody concentration (M).
In experiment [2] the target is IL-2Rβγ-His (Acrobiosystems) (UniProt P14784). The experiment is described as follows: ELISA on plate-coated IL-2Rβγ-His, OD450 against antibody concentration (M). Background: An ELISA detects its analyte on a solid surface through an enzyme-linked reagent.
In experiment [3] the target is T1, Human PD-1 (Acrobiosystems, Cat #PD1-H5221) (human, UniProt Q15116 25-167).
T1 construct: Bought protein, immobilised on a CM5 chip; also called hPD-1
T1 sequence (Q15116 25-167 limits assumed): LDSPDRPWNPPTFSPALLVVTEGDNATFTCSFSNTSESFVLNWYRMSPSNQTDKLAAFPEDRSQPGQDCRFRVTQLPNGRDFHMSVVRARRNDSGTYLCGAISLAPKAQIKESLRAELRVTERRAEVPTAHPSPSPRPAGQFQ
The experiment in a line: SPR Biacore 8K, human PD-1 amine-coupled on CM5, 1:1 model, pH 6.0. Here is the method:
(§1) Human PD-1 (Acrobiosystems, Cat #PD1-H5221) at a concentration of 1 μg/ml was immobilized on a CM5 chip (Cytiva) using an amine coupling kit (Cytiva) according to the manufacturer's instructions. […] After each experiment in each concentration cycle, the chip was regenerated with glycine at pH 1.5. At this time, the running buffer used was a pH 7.4 or pH 6.0 HBS-EP+ buffer (0.1 M HEPES, 1.5 M NaCl, 0.03 M EDTA and 0.5% v/v Surfactant P20), and the experimental proteins were diluted in the running buffer.
(§2) The analysis was performed using the 1:1 binding model in Biacore evaluation software version 3.0, and the results of the kinetic constants (ka and kd) and affinity (KD) values are shown in Table 3 below.
For orientation: In SPR one partner is held on a chip, and binding of the other changes the refractive index at the surface.

Experiment [4] addresses T1, Human PD-1 (Acrobiosystems, Cat …). The experiment in a line: SPR Biacore 8K, human PD-1 amine-coupled on CM5, 1:1 model, pH 7.4. Here is the method:
as §1, §2

From patent US20250145714A1 (GENUV, published 2025) come the findings set out here.

Chain of IL-2Rα-His (Acrobiosystems) (P01589 22-213): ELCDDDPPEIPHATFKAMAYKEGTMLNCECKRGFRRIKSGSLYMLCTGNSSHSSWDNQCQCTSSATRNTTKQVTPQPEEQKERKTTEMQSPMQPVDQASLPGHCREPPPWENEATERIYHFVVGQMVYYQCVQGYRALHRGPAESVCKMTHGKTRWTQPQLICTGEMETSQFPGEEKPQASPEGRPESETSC
Chain of IL-2Rβγ-His (Acrobiosystems) (P14784 27-239 limits assumed, chain 1 of 2): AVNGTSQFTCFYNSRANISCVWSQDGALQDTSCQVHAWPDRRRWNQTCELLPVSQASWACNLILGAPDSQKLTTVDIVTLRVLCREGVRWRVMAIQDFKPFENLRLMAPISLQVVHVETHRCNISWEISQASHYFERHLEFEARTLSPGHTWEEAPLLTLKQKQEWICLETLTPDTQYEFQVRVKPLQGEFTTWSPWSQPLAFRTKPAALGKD
Chain of IL-2Rβγ-His (Acrobiosystems) (P31785 23-262 limits assumed, chain 2 of 2, further chain): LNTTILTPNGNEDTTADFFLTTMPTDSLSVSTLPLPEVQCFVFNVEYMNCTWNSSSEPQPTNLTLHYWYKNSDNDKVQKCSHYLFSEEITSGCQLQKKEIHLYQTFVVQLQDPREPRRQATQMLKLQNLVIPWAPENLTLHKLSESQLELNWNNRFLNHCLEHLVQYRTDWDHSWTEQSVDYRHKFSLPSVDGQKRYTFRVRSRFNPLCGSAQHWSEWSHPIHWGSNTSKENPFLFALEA

Consider “Fc-IL2 (control antibody; prepared in-house) (Fc fusion)”, for which the figures for the 50% effective concentration (EC50) in experiment [1] and in experiment [2] were 0.325 nM and 7.99 nM, respectively.

B1: 1G1-h70 (antibody, V domains shown)
VH: QVQLVQSGAEVKKPGASVKVSCKASGYTFTGYWMHWVRQAPGQGLEWIGMIHPNSDTTTYNEKFKNRVTMTRDTSISTAYMELSRLRSDDTAVYYCAGTDQAAWFAFWGQGTTVTVSS
VL: DIVMTQTPLSLSVTPGQPASISCRSSQNIVHSQGDTYLEWYLQKPGQSPQLLIYKVSKRFSGVPDRFSGSGSGTDFTLKISRVEAEDVGVYYCFQGSHVPWTFGGGTKVEIK
notes: also called humanized anti-PD-1 antibody 1G1-h70; anti-PD-1 antibody
In experiment [3], B1 gave a Kd of 0.0481 nM, a koff of 1.38e-05 s⁻¹ and a kon of 286000 M⁻¹ s⁻¹. In experiment [4], this molecule had a Kd of 0.237 nM, a koff of 3.51e-05 s⁻¹ and a kon of 148000 M⁻¹ s⁻¹.

As usually defined, the EC50 is the concentration giving half of the maximal effect. What is called Kd is the concentration at which binding is half-saturated. A lower Kd goes with higher affinity. Usually koff stands for the first-order rate constant of dissociation. A high value points to fast dissociation. What is called kon is a measure of how fast the partners come together.
